# B1: NP_002788.1 (parent)
# chain: DGWIRVSSDNVADLHEKYSGSTP
# Variants of: B1
# Assay: protein stability index of a GFP-peptide fusion (GPS, HEK-293T) (PSI 1-6); higher = more stable
# Details: c terminus: native
# 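Also: lentivirally expressed fusion library, cells FACS-sorted into six equal-sized GFP/DsRed ratio bins, PSI computed from sequencing read fractions per bin weighted by bin number.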
row,Variant,protein stability index
1,DRWIRVSSDNVADLHEKYSGSTP,2.97
2,DKWIRVSSDNVADLHEKYSGSTP,2.13
3,DVWIRVSSDNVADLHEKYSGSTP,2.49
4,DTWIRVSSDNVADLHEKYSGSTP,2.09
5,DFWIRVSSDNVADLHEKYSGSTP,2.47
6,DDWIRVSSDNVADLHEKYSGSTP,2.9
7,DHWIRVSSDNVADLHEKYSGSTP,2.51
8,DLWIRVSSDNVADLHEKYSGSTP,2.54
9,DQWIRVSSDNVADLHEKYSGSTP,2.56
10,DAWIRVSSDNVADLHEKYSGSTP,2.25
11,DSWIRVSSDNVADLHEKYSGSTP,2.13
12,DPWIRVSSDNVADLHEKYSGSTP,2.71
13,DYWIRVSSDNVADLHEKYSGSTP,2.78
14,DMWIRVSSDNVADLHEKYSGSTP,2.36
15,DNWIRVSSDNVADLHEKYSGSTP,2.42
16,DEWIRVSSDNVADLHEKYSGSTP,2.51
17,DWWIRVSSDNVADLHEKYSGSTP,2.27
18,DCWIRVSSDNVADLHEKYSGSTP,2.21
19,DGWIRASSDNVADLHEKYSGSTP,2.27
20,DGWIRPSSDNVADLHEKYSGSTP,5.05
21,DGWIRRSSDNVADLHEKYSGSTP,2.13
22,DGWIRGSSDNVADLHEKYSGSTP,4.34
23,DGWIRISSDNVADLHEKYSGSTP,2.21
24,DGWIRKSSDNVADLHEKYSGSTP,2.16
25,DGWIRWSSDNVADLHEKYSGSTP,3.04

row,Variant,protein stability index
1,DGWIRFSSDNVADLHEKYSGSTP,2.77
2,DGWIRLSSDNVADLHEKYSGSTP,2.78
3,DGWIRTSSDNVADLHEKYSGSTP,3.15
4,DGWIRCSSDNVADLHEKYSGSTP,3
5,DGWIRHSSDNVADLHEKYSGSTP,2.18
6,DGWIRQSSDNVADLHEKYSGSTP,2.41
7,DGWIRSSSDNVADLHEKYSGSTP,3.41
8,DGWIRDSSDNVADLHEKYSGSTP,4.78
9,DGWIRYSSDNVADLHEKYSGSTP,2.48
10,DGWIRMSSDNVADLHEKYSGSTP,2.31
11,DGWIRESSDNVADLHEKYSGSTP,3.77
12,DGWIRNSSDNVADLHEKYSGSTP,2.86
13,DGWFRVSSDNVADLHEKYSGSTP,4.14
14,DGWVRVSSDNVADLHEKYSGSTP,2.17
15,DGWLRVSSDNVADLHEKYSGSTP,3.18
16,DGWQRVSSDNVADLHEKYSGSTP,2.94
17,DGWSRVSSDNVADLHEKYSGSTP,3.47
18,DGWGRVSSDNVADLHEKYSGSTP,4.49
19,DGWYRVSSDNVADLHEKYSGSTP,4.36
20,DGWCRVSSDNVADLHEKYSGSTP,3.19
21,DGWPRVSSDNVADLHEKYSGSTP,5.29
22,DGWRRVSSDNVADLHEKYSGSTP,3.53
23,DGWNRVSSDNVADLHEKYSGSTP,4.94
24,DGWWRVSSDNVADLHEKYSGSTP,3.58
25,DGWARVSSDNVADLHEKYSGSTP,2.92

row,Variant,protein stability index
1,DGWMRVSSDNVADLHEKYSGSTP,3.39
2,DGWHRVSSDNVADLHEKYSGSTP,4.58
3,DGWDRVSSDNVADLHEKYSGSTP,4.94
4,DGWERVSSDNVADLHEKYSGSTP,3.9
5,DGWTRVSSDNVADLHEKYSGSTP,2.81
6,DGWKRVSSDNVADLHEKYSGSTP,3.67
7,CGWIRVSSDNVADLHEKYSGSTP,2.23
8,EGWIRVSSDNVADLHEKYSGSTP,2.54
9,NGWIRVSSDNVADLHEKYSGSTP,2.33
10,VGWIRVSSDNVADLHEKYSGSTP,2.36
11,IGWIRVSSDNVADLHEKYSGSTP,2.92
12,WGWIRVSSDNVADLHEKYSGSTP,2.8
13,QGWIRVSSDNVADLHEKYSGSTP,2.36
14,LGWIRVSSDNVADLHEKYSGSTP,2.2
15,TGWIRVSSDNVADLHEKYSGSTP,2.48
16,KGWIRVSSDNVADLHEKYSGSTP,2.09
17,HGWIRVSSDNVADLHEKYSGSTP,2.51
18,RGWIRVSSDNVADLHEKYSGSTP,2.44
19,FGWIRVSSDNVADLHEKYSGSTP,2.3
20,PGWIRVSSDNVADLHEKYSGSTP,2.7
21,AGWIRVSSDNVADLHEKYSGSTP,2.37
22,MGWIRVSSDNVADLHEKYSGSTP,2.3
23,SGWIRVSSDNVADLHEKYSGSTP,2.53
24,YGWIRVSSDNVADLHEKYSGSTP,2.07
25,DGWIRVSSDSVADLHEKYSGSTP,2.17

row,Variant,protein stability index
1,DGWIRVSSDCVADLHEKYSGSTP,2.21
2,DGWIRVSSDFVADLHEKYSGSTP,2.4
3,DGWIRVSSDMVADLHEKYSGSTP,2.67
4,DGWIRVSSDIVADLHEKYSGSTP,2.28
5,DGWIRVSSDEVADLHEKYSGSTP,2.53
6,DGWIRVSSDYVADLHEKYSGSTP,2.36
7,DGWIRVSSDGVADLHEKYSGSTP,2.86
8,DGWIRVSSDWVADLHEKYSGSTP,2.42
9,DGWIRVSSDDVADLHEKYSGSTP,2.54
10,DGWIRVSSDAVADLHEKYSGSTP,1.84
11,DGWIRVSSDPVADLHEKYSGSTP,2.58
12,DGWIRVSSDLVADLHEKYSGSTP,2.69
13,DGWIRVSSDTVADLHEKYSGSTP,2.37
14,DGWIRVSSDVVADLHEKYSGSTP,2.39
15,DGWIRVSSDKVADLHEKYSGSTP,2.28
16,DGWIRVSSDRVADLHEKYSGSTP,2.04
17,DGWIRVSSDHVADLHEKYSGSTP,2.22
18,DGWIRVLSDNVADLHEKYSGSTP,2.26
19,DGWIRVTSDNVADLHEKYSGSTP,2.24
20,DGWIRVRSDNVADLHEKYSGSTP,4.19
21,DGWIRVGSDNVADLHEKYSGSTP,3.63
22,DGWIRVQSDNVADLHEKYSGSTP,3.86
23,DGWIRVFSDNVADLHEKYSGSTP,2.45
24,DGWIRVYSDNVADLHEKYSGSTP,2.39
25,DGWIRVWSDNVADLHEKYSGSTP,2.64

row,Variant,protein stability index
1,DGWIRVPSDNVADLHEKYSGSTP,4.54
2,DGWIRVCSDNVADLHEKYSGSTP,2.07
3,DGWIRVISDNVADLHEKYSGSTP,2.25
4,DGWIRVDSDNVADLHEKYSGSTP,4.55
5,DGWIRVVSDNVADLHEKYSGSTP,2.06
6,DGWIRVKSDNVADLHEKYSGSTP,4.58
7,DGWIRVASDNVADLHEKYSGSTP,2.32
8,DGWIRVMSDNVADLHEKYSGSTP,2.41
9,DGWIRVESDNVADLHEKYSGSTP,3.83
10,DGWIRVHSDNVADLHEKYSGSTP,3.09
11,DGWIRVNSDNVADLHEKYSGSTP,4.02
12,DGWIRVSSDNDADLHEKYSGSTP,2.54
13,DGWIRVSSDNAADLHEKYSGSTP,2.53
14,DGWIRVSSDNHADLHEKYSGSTP,2.29
15,DGWIRVSSDNFADLHEKYSGSTP,2.37
16,DGWIRVSSDNCADLHEKYSGSTP,2.41
17,DGWIRVSSDNGADLHEKYSGSTP,2.7
18,DGWIRVSSDNEADLHEKYSGSTP,1.92
19,DGWIRVSSGNVADLHEKYSGSTP,2.82
20,DGWIRVSSPNVADLHEKYSGSTP,2.25
21,DGWIRVSSWNVADLHEKYSGSTP,2.19
22,DGWIRVSSANVADLHEKYSGSTP,2.35
23,DGWIRVSSRNVADLHEKYSGSTP,2.3
24,DGWIRVSSINVADLHEKYSGSTP,2.27
25,DGWIRVSSQNVADLHEKYSGSTP,2.41

row,Variant,protein stability index
1,DGWIRVSSHNVADLHEKYSGSTP,2.59
2,DGWIRVSSKNVADLHEKYSGSTP,2.36
3,DGWIRVSSSNVADLHEKYSGSTP,2.74
4,DGWIRVSSCNVADLHEKYSGSTP,2.4
5,DGWIRVSSVNVADLHEKYSGSTP,2.54
6,DGWIRVSSNNVADLHEKYSGSTP,2.29
7,DGWIRVSSFNVADLHEKYSGSTP,2.27
8,DGWIRVSSENVADLHEKYSGSTP,2.34
9,DGWIRVSSMNVADLHEKYSGSTP,2.59
10,DGWIRVSSYNVADLHEKYSGSTP,2.24
11,DGWIRVSSTNVADLHEKYSGSTP,2.43
12,DGWIRVSSLNVADLHEKYSGSTP,2.42
13,DGWIKVSSDNVADLHEKYSGSTP,2.49
14,DGWICVSSDNVADLHEKYSGSTP,2.83
15,DGWIDVSSDNVADLHEKYSGSTP,3.01
16,DGWIIVSSDNVADLHEKYSGSTP,2.67
17,DGWIFVSSDNVADLHEKYSGSTP,2.52
18,DGWIGVSSDNVADLHEKYSGSTP,3.15
19,DGWIQVSSDNVADLHEKYSGSTP,2.52
20,DGWIWVSSDNVADLHEKYSGSTP,2.41
21,DGWIAVSSDNVADLHEKYSGSTP,2.31
22,DGWIHVSSDNVADLHEKYSGSTP,2.62
23,DGWITVSSDNVADLHEKYSGSTP,2.54
24,DGWIVVSSDNVADLHEKYSGSTP,2.42
25,DGWINVSSDNVADLHEKYSGSTP,2.63

row,Variant,protein stability index
1,DGWIMVSSDNVADLHEKYSGSTP,2.64
2,DGWIYVSSDNVADLHEKYSGSTP,2.76
3,DGWIPVSSDNVADLHEKYSGSTP,4.15
4,DGWIEVSSDNVADLHEKYSGSTP,2.96
5,DGWILVSSDNVADLHEKYSGSTP,2.5
6,DGWISVSSDNVADLHEKYSGSTP,2.51
7,DGWIRVSQDNVADLHEKYSGSTP,2.54
8,DGWIRVSTDNVADLHEKYSGSTP,2.87
9,DGWIRVSKDNVADLHEKYSGSTP,2.68
10,DGWIRVSDDNVADLHEKYSGSTP,2.99
11,DGWIRVSPDNVADLHEKYSGSTP,3.95
12,DGWIRVSFDNVADLHEKYSGSTP,2.36
13,DGWIRVSGDNVADLHEKYSGSTP,2.42
14,DGWIRVSYDNVADLHEKYSGSTP,2.14
15,DGWIRVSADNVADLHEKYSGSTP,2.31
16,DGWIRVSCDNVADLHEKYSGSTP,2.13
17,DGWIRVSHDNVADLHEKYSGSTP,2.57
18,DGWIRVSIDNVADLHEKYSGSTP,2.32
19,DGWIRVSLDNVADLHEKYSGSTP,2.28
20,DGWIRVSNDNVADLHEKYSGSTP,2.31
21,DGWIRVSVDNVADLHEKYSGSTP,2.42
22,DGWIRVSEDNVADLHEKYSGSTP,2.23
23,DGWIRVSWDNVADLHEKYSGSTP,2.23
24,DGWIRVSMDNVADLHEKYSGSTP,2.41
25,DGWIRVSRDNVADLHEKYSGSTP,2.31

row,Variant,protein stability index
1,DGLIRVSSDNVADLHEKYSGSTP,5.26
2,DGYIRVSSDNVADLHEKYSGSTP,5.02
3,DGQIRVSSDNVADLHEKYSGSTP,5.42
4,DGHIRVSSDNVADLHEKYSGSTP,5.35
5,DGAIRVSSDNVADLHEKYSGSTP,5.34
6,DGTIRVSSDNVADLHEKYSGSTP,5.5
7,DGDIRVSSDNVADLHEKYSGSTP,5.23
8,DGSIRVSSDNVADLHEKYSGSTP,5.54
9,DGPIRVSSDNVADLHEKYSGSTP,5.26
10,DGEIRVSSDNVADLHEKYSGSTP,5.43
11,DGGIRVSSDNVADLHEKYSGSTP,5.28
12,DGCIRVSSDNVADLHEKYSGSTP,5.49
13,DGNIRVSSDNVADLHEKYSGSTP,5.39
14,DGFIRVSSDNVADLHEKYSGSTP,4.08
15,DGMIRVSSDNVADLHEKYSGSTP,5.35
16,DGKIRVSSDNVADLHEKYSGSTP,5.21
17,DGIIRVSSDNVADLHEKYSGSTP,5.33
18,DGVIRVSSDNVADLHEKYSGSTP,5.65
19,DGRIRVSSDNVADLHEKYSGSTP,5.15

# Source: the supplement of paper PMC10567573
